The subject of the series is MS2 coat protein. In words: apparent KD of MS2 coat protein; designed switch direction (-1 OFF switch, 1 ON switch): -1; higher = weaker reporter binding. A digest of the protocol:
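For each design, the apparent KD is the median over clusters of curves fitted to normalised cluster fluorescence. Clusters held RNA switches with common flanks, transcribed on Illumina chips by stalled E. coli RNA polymerase. These were titrated with SNAP-549-labelled MS2 coat protein, doubling from 0.7 or 1.5 nM to 3 µM, without input, with 200 uM small-molecule ligand, or with an oligonucleotide input.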

The mark [1] stands for this setting: Eterna round: R95, input ligand: microRNA oligo, concentration not stated.
The mark [2] stands for this setting: input ligand: microRNA oligo, concentration not stated.

The results in this text go back to the supplement of paper PMC9170038.

“CCAACAAGCUUUUUGCUCGACAUGAGGAUCACCCAUGUAAAAUGGGUAAAUUUAAAUUUAAAUUUAUUUAAAUUUGG [-16.3, -42.5 kcal, A 35%] (Eterna round: R97, puzzle: Sensor, turn-off variant 1)”: the “apparent KD of MS2 coat protein” value is 505 nM (input ligand: FMN 200 uM) and 728 nM (input ligand: none).
The corresponding values for “CCAAGAAUAGGAUAUACACCAUGUCAGCUUAUAUACAACGCACAUGAGGAUCACCCAUGUAGAAGGGUUCUCUC [Exclusion-2-#2] (Eterna round: R97, puzzle: Exclusion 2)” are 571 nM and 823 nM.
Consider “CCAAGCUGUGUGAGGAUAUGCUGGUCCUUGGAUCAGCAGAAGGCACAUGAGGAUCACCCAUGUGAAAAGCUUGG [Mat - Exclusion 4 - JL Mod - D92] (puzzle: Brourd's mod of Exclusion 4)”, for which, under setting [1], the “apparent KD of MS2 coat protein” value came out at 13.8 nM.
“CCACUGUCAGGAUAUCGUGCAUAACGUUUACAAUUUAUGUGCGAGAAGGGACAUGAGGAUCACCCAUGUAAACG [Omei Ex4 A28PK3] (Eterna round: R97, puzzle: Exclusion 4)”: the “apparent KD of MS2 coat protein” value (input ligand: FMN 200 uM) came to 227 nM and the “apparent KD of MS2 coat protein” value (input ligand: none) came out at 203 nM.
For the sequence “CCAGAGUGAGGAUAUGCAUAAAGGUGCUGUCCCGUGGCUUGACAUGAGGAUCACCCAUGUAGAAGGUGCGUUGU [Raonra] (Eterna round: R96, puzzle: Exclusion 2)”, the “apparent KD of MS2 coat protein” value (input ligand: FMN 200 uM) was 51.6 nM, the “apparent KD of MS2 coat protein” value under setting [2] turned out to be 35.6 nM and the “apparent KD of MS2 coat protein” value (input ligand: none) came out at 54.4 nM.
For the sequence “CCAGAGUGAGGAUAUGCAUAAAGGUGCUGUCCCGUGGCUUGACAUGAGGAUCACCCAUGUAGAAGGUGCGUUGU [Raonra] (puzzle: Exclusion 2)”, under setting [1], the “apparent KD of MS2 coat protein” value worked out at 38.7 nM.
For the sequence “CCAGGCGUCUUGGCUCGUCUUAUUUGGAGAGGAUUGAUAACAUGAGGAUCACCCAUGUGUGUGGGAGCGUUGCAGUG [JR_SV3TOV2_Sub019] (puzzle: Sensor v3, turn-off variant 2)”, the “apparent KD of MS2 coat protein” value is, setting by setting: (Eterna round: R95, input ligand: FMN 200 uM) 75.5 nM; under setting [1], 137 nM; (Eterna round: R95, input ligand: none) 102 nM.
Take “CCAUCGUGUGUGAGGAUAUGCUGGACCUUGGUUCAGCAGAAGGCACAUGAGGAUCACCCAUGUGAAUACGGUGG [Mat - Exclusion 4 - JL Mod - D90] (puzzle: Brourd's mod of Exclusion 4)”: the “apparent KD of MS2 coat protein” value under setting [1] stood at 16.1 nM.
On the same count and under the same terms, with “CCAUGCAGUGUGAGGAUAUGCUGGUCCUUGGAUCAGCAGAAGGCACAUGAGGAUCACCCAUGUGAAUAGCGUGG [Mat - Exclusion 4 - JL Mod - D84] (puzzle: Brourd's mod of Exclusion 4)” the figure was 36.6 nM; with “CCAUGUUAGCAGGAUAUGCAAUUAUUCUUUUAAGCAGAAGGGCUUACAUGAGGAUCACCCAUGUAACAUUUCAU [JR_E6_Sub081] (puzzle: Exclusion 6)”, 17.3 nM; with “CCAUGUUAGCAGGAUAUGCAAUUAUUCUUUUACGCAGAAGGGCUUACAUGAGGAUCACCCAUGUAACAUUUCAU [JR_E6_Sub082] (puzzle: Exclusion 6)”, 17.2 nM.
For the sequence “CCCAGUUAUUCAGGAUAUUGUACAUGAGGAUCACCCAUGUAAUAAAUGAGGAUUUCGGGUGUCUACAAGAAGGGAAGGAUAGGC [Ostracism 19 - Jieux - Exclusion NG 2] (Eterna round: R96, puzzle: Exclusion NG 2)”, the “apparent KD of MS2 coat protein” value runs as follows: (input ligand: FMN 200 uM) 26.5 nM; under setting [2], 23.8 nM; (input ligand: none) 29.3 nM.
For the sequence “CCCAUGUCAGGAUAUUAAUUGAGCAGGAAGCCCUGUUCACUUGAGAAGGGACAUGAGGAUCACCCAUGUAAAAC [Aesvea] (Eterna round: R97, puzzle: Exclusion 4)”, the “apparent KD of MS2 coat protein” value by setting is: (input ligand: FMN 200 uM) 30.1 nM; (input ligand: none) 384 nM.
The corresponding values for “CCCGCAGGCUUUUUGCUCGACAUGAGGAUCACCCAUGUUGAAUGGGUUGUGUGUGUGUGAUACAUAUAUAUGGUCCU [-26.2, -50.8 kcal, A 19%] (Eterna round: R97, puzzle: Sensor, turn-off variant 1)” are 242 nM and 349 nM.
For “CCCGGGCUUGUGAGGAUAUGCGCGCGGAAAUGUGUGUAGAAGGCACAUGAGGAUCACCCAUGUAAGGGCCCGGG [-32.4, -30.4 kcal, A 23%, 6-0] (Eterna round: R97, puzzle: Brourd's mod of Exclusion 4)”, in that order: 19.3 nM and 148 nM.
For “CCCGGGUCAGGAUAUGGGCCCGGGCCCGAAAGGGCCCGGGCCCAGAAGGGACAUGAGGAUCACCCAUGUCCGGG [-53.1, -50.9 kcal, 20% A] (Eterna round: R97, puzzle: Exclusion 4)”, in that order: 26.7 nM and 24.3 nM.
As for “CCCGGGUUUGUAGGAUAUGCCCGCCUUUGGCGGGCAGAAGGACAUGAGGAUCACCCAUGUUGUAUAAACUUGGGAUGUUCCUCG [random4] (Eterna round: R96, puzzle: Exclusion NG 1)”, the “apparent KD of MS2 coat protein” value came to 30.8 nM (input ligand: FMN 200 uM), 31.3 nM under setting [2] and 40.7 nM (input ligand: none).
The corresponding values for “CCCGUCGAUGUAGGAUAUGCCCGGGUCUCCCGGGCAGAAGGACAUGAGGAUCACCCAUGUUCGUGAGGAUCACCCAUGAAUGGG [Double but mutated MS2] (Eterna round: R96, puzzle: Exclusion NG 1)” are 15 nM, 13 nM and 19.4 nM.
As for “CCCGUGUAAGGAUAUCGUUCACUUGGCGAAAGUCGAGUGGACGAGAAGGUACAUGAGGAUCACCCAUGUACGGG [-36.1, -35.7 kcal, A 27%] (Eterna round: R97, puzzle: Exclusion 4)”, the “apparent KD of MS2 coat protein” value (input ligand: FMN 200 uM) is 438 nM and the “apparent KD of MS2 coat protein” value (input ligand: none) was found to be 305 nM.
As for “CCCUAGUAUGUAGGAUAUCGGUCAGUUUCUGAUCGAGAAGGACAUGAGGAUCACCCAUGUAAAACGUCCGGUUUCUGGAUAGGG [JL ENG1 3.56] (Eterna round: R96, puzzle: Exclusion NG 1)”, the “apparent KD of MS2 coat protein” value worked out at 73.2 nM (input ligand: FMN 200 uM), 17 nM under setting [2] and 24.6 nM (input ligand: none).
Take “CCCUCACAUGAGGAUCACCCAUGUCAGGAUAUCUCACAUCGGCCUUAGGCCAAUGUCAAGAGAAGGGACGUAUC [Usanvequin] (puzzle: Exclusion 1)”: the “apparent KD of MS2 coat protein” value under setting [1] is 21.7 nM.
For “CCGAAUAUGCAGGAUAUCGUAUCGGAAACGAUACGAGAAGGGUAAACAUGAGGAUCACCCAUGUUCCUUAACGG [Fiskers Ex 6 - 18] (puzzle: Exclusion 6)”, the “apparent KD of MS2 coat protein” value under setting [1] came to 17.7 nM.
“CCGAUAAUGUAGGAUAUCGUAUCGGAAACGAUACGAGAAGGGCAAACAUGAGGAUCACCCAUGUUCCUUAACGG [Mat - Exclusion 6 - Eli Mod - D72] (puzzle: Exclusion 6)”: under setting [1], the “apparent KD of MS2 coat protein” value came out at 15.8 nM.
For the sequence “CCGCGUGUCGGACUGGGUUACAUGAGGAUCACCCAUGUUCGGUAAACUAAGCGUUUGCUCGUCUAAACCAUUCUCGA [Eternabot (Original) Solution 24] (Eterna round: R97, puzzle: Sensor, turn-off variant 1)”, the “apparent KD of MS2 coat protein” value is 175 nM (input ligand: FMN 200 uM) and 205 nM (input ligand: none).
As to “CCGGAAAUACAGGAUAUAGGAGUAAAUAUACUCCUAGAAGGGUAUACAUGAGGAUCACCCAUGUGUCCUACCGG [Fiskers Ex 6 - 67] (puzzle: Exclusion 6)”, the “apparent KD of MS2 coat protein” value under setting [1] turned out to be 23.4 nM.
